We go through three molecules from patent US20090221680, “Aptamers that bind thrombin with high affinity” (published 2009).

What is called Kd is the constant that tells how readily two partners part at equilibrium. The low end stands for higher affinity, the high end for lower affinity.

Data set [1] concerns the target T1, thrombin (alpha-thrombin) (Homo sapiens, UniProt P00734;P00734 P00734:315-363,P00734:364-622). In words: filter; DPBS Ca Mg, BSA, RT.
Data set [2] concerns the target T1, thrombin (alpha-thrombin). In words: filter; DPBS Ca2+ Mg2+, 0.1 mg/ml BSA, room temp.
The next data set concerns the target thrombin (Sus scrofa, UniProt Q19AZ8;Q19AZ8 Q19AZ8:316-364,Q19AZ8:365-622). In words: filter; species cross-reactivity.
In data set [3] the target is thrombin (endogenous, in vivo, ACT of whole blood) (Macaca fascicularis, UniProt A0A2K5UZ51;A0A2K5UZ51 A0A2K5UZ51:325-360,A0A2K5UZ51:361-619). In words: inhibition; maximum ACT in monkey, IV bolus 0.46 umol/kg.
Data set [4] deals with T1, thrombin (alpha-thrombin). In words: filter.

In data set [1], ACTGCCTAGGTTGGGTAGGGTGGTGGCAGT (ssDNA, PS linkage between nt 1 and 2) [ARC2644] displayed a Kd of 0.183 nM.
In turn, TCCCTGCAATTCGATCAGCAGGGGTGGTGTGGGTGGCTGAGGATCGATC (ssDNA) [AMX(395)_A1] had a Kd in data set [2] of 6.4 nM.
Consider CGCCTAGGTTGGGTAGGGTGGTGGCG (ssDNA) [ARC2172], for which the binding result in the data set with thrombin is “binds”. Moreover, the activity in data set [3] came out at 527 s. The molecule further showed a Kd in data set [4] of 0.14 nM.
